T1: Human OSM (human, UniProt P13725 26-221)
T1 construct: Recombinant human OSM; also called hOSM; human Oncostatin M
T1 sequence: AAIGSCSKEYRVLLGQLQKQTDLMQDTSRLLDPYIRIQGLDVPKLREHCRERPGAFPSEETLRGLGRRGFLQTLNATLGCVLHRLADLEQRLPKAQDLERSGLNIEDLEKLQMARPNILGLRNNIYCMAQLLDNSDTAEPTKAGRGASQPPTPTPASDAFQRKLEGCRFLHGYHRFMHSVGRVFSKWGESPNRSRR


Legend:
Human OSM [1] = target: T1, Human OSM; assay: SPR (ProteOn XPR36 or Biacore T100), captured supernatant, OSM as analyte [continued]
Procedure: (§1) The initial kinetic analyses for the CDRH3 screen were carried out on the ProteOn XPR36 (Biorad Laboratories) and certain supernatants were selected for more accurate kinetic analysis on the BiaCore T100.
(§2) For the ProteOn analysis, anti-human IgG (GE Healthcare/Biacore BR-1008-39) was coupled to a GLM chip (Biorad Laboratories 176-5012) by primary amine coupling. The CDRH3 variants were captured directly on to this surface and recombinant human OSM was passed over the captured antibody surface at 256, 64, 16, 4 and 1 nM, with a buffer injection alone (i.e. 0 nM) used to double reference the binding curves. Following the OSM binding event, the capture surfaces were regenerated: with 3M MgCl₂ the regeneration removed the previously captured antibody ready for another cycle of capture and binding analysis. The data was then fitted to the 1:1 model (with mass transport) inherent to the ProteOn analysis software. The run was carried out using HBS-EP (Biacore/GE-Healthcare BR-1006-69) and the analysis temperature was 25° C.
(§3) A similar method was used for analysis of constructs using the Biacore T100, anti-human IgG (GE Healthcare/Biacore BR-1008-39) was coupled to a CM5 chip (GE Healthcare/Biacore BR-1006-68) by primary amine coupling, antibodies were captured on this surface and recombinant human OSM was passed over the captured antibody surface at 256, 64, 16, 4 and 1 nM, with a buffer injection alone (i.e. 0 nM) used to double reference the binding curves. Regeneration was by using pulses of 3M 3M MgCl₂ or 100 mM phosphoric acid or using both reagents. The data was fitted to the 1:1 model inherent to the Biacore T100 analysis software. The run was carried out using HBS-EP (Biacore/GE-Healthcare BR-1006-69) and the analysis temperature was 25° C.

Human OSM [2] = target: T1, Human OSM; assay: SPR (ProteOn XPR36 or Biacore T100), captured supernatant, OSM as analyte; grey cell: 3x decrease in binding
Procedure: as §1, §2, §3

Kd (Human OSM [1]) | Kd (Human OSM [2]) | Binder
497 pM |  | Pos 96 Thr (antibody, V domains shown, also called CDRH3 V96>T) VH: EVQLVESGGGLVQPGGSLRLSCAASGFTFSSYAMSWVRQAPGKGLEWVATISDGGSFTYYLDNVRGRFTISRDNAKNSLYLQMNSLRAEDTAVYYCARDTGHTTFWYFDVWGRGTLVTVSS VL: DIVMTQSPDSLAVSLGERATINCRASKSVSAAGYNFMHWYQQKPGQPPKVLIYYASNLESGVPDRFSGSGSGTDFTLTISSLQAEDVAVYYCLHSREFPFTFGGGTKVEIKR
 | 1100 pM | Pos 101 Gln (antibody, V domains shown, also called CDRH3 D101>Q) VH: EVQLVESGGGLVQPGGSLRLSCAASGFTFSSYAMSWVRQAPGKGLEWVATISDGGSFTYYLDNVRGRFTISRDNAKNSLYLQMNSLRAEDTAVYYCARDVGHTTFWYFQVWGRGTLVTVSS VL: DIVMTQSPDSLAVSLGERATINCRASKSVSAAGYNFMHWYQQKPGQPPKVLIYYASNLESGVPDRFSGSGSGTDFTLTISSLQAEDVAVYYCLHSREFPFTFGGGTKVEIKR
560 pM |  | Pos 100C Val (antibody, V domains shown, also called CDRH3 Y100C>V) VH: EVQLVESGGGLVQPGGSLRLSCAASGFTFSSYAMSWVRQAPGKGLEWVATISDGGSFTYYLDNVRGRFTISRDNAKNSLYLQMNSLRAEDTAVYYCARDVGHTTFWVFDVWGRGTLVTVSS VL: DIVMTQSPDSLAVSLGERATINCRASKSVSAAGYNFMHWYQQKPGQPPKVLIYYASNLESGVPDRFSGSGSGTDFTLTISSLQAEDVAVYYCLHSREFPFTFGGGTKVEIKR
444 pM |  | Pos 102 Ser (antibody, V domains shown, also called CDRH3 V102>S) VH: EVQLVESGGGLVQPGGSLRLSCAASGFTFSSYAMSWVRQAPGKGLEWVATISDGGSFTYYLDNVRGRFTISRDNAKNSLYLQMNSLRAEDTAVYYCARDVGHTTFWYFDSWGRGTLVTVSS VL: DIVMTQSPDSLAVSLGERATINCRASKSVSAAGYNFMHWYQQKPGQPPKVLIYYASNLESGVPDRFSGSGSGTDFTLTISSLQAEDVAVYYCLHSREFPFTFGGGTKVEIKR
979 pM |  | Pos 96 Trp (antibody, V domains shown, also called CDRH3 V96>W) VH: EVQLVESGGGLVQPGGSLRLSCAASGFTFSSYAMSWVRQAPGKGLEWVATISDGGSFTYYLDNVRGRFTISRDNAKNSLYLQMNSLRAEDTAVYYCARDWGHTTFWYFDVWGRGTLVTVSS VL: DIVMTQSPDSLAVSLGERATINCRASKSVSAAGYNFMHWYQQKPGQPPKVLIYYASNLESGVPDRFSGSGSGTDFTLTISSLQAEDVAVYYCLHSREFPFTFGGGTKVEIKR
 | 3350 pM | Pos 100B Gln (antibody, V domains shown, also called CDRH3 W100B>Q) VH: EVQLVESGGGLVQPGGSLRLSCAASGFTFSSYAMSWVRQAPGKGLEWVATISDGGSFTYYLDNVRGRFTISRDNAKNSLYLQMNSLRAEDTAVYYCARDVGHTTFQYFDVWGRGTLVTVSS VL: DIVMTQSPDSLAVSLGERATINCRASKSVSAAGYNFMHWYQQKPGQPPKVLIYYASNLESGVPDRFSGSGSGTDFTLTISSLQAEDVAVYYCLHSREFPFTFGGGTKVEIKR
440 pM |  | Pos 101 Val (antibody, V domains shown, also called CDRH3 D101>V) VH: EVQLVESGGGLVQPGGSLRLSCAASGFTFSSYAMSWVRQAPGKGLEWVATISDGGSFTYYLDNVRGRFTISRDNAKNSLYLQMNSLRAEDTAVYYCARDVGHTTFWYFVVWGRGTLVTVSS VL: DIVMTQSPDSLAVSLGERATINCRASKSVSAAGYNFMHWYQQKPGQPPKVLIYYASNLESGVPDRFSGSGSGTDFTLTISSLQAEDVAVYYCLHSREFPFTFGGGTKVEIKR
 | 1170 pM | Pos 100C Gln (antibody, V domains shown, also called CDRH3 Y100C>Q) VH: EVQLVESGGGLVQPGGSLRLSCAASGFTFSSYAMSWVRQAPGKGLEWVATISDGGSFTYYLDNVRGRFTISRDNAKNSLYLQMNSLRAEDTAVYYCARDVGHTTFWQFDVWGRGTLVTVSS VL: DIVMTQSPDSLAVSLGERATINCRASKSVSAAGYNFMHWYQQKPGQPPKVLIYYASNLESGVPDRFSGSGSGTDFTLTISSLQAEDVAVYYCLHSREFPFTFGGGTKVEIKR
317 pM |  | Pos 98 Trp (antibody, V domains shown, also called CDRH3 H98>W) VH: EVQLVESGGGLVQPGGSLRLSCAASGFTFSSYAMSWVRQAPGKGLEWVATISDGGSFTYYLDNVRGRFTISRDNAKNSLYLQMNSLRAEDTAVYYCARDVGWTTFWYFDVWGRGTLVTVSS VL: DIVMTQSPDSLAVSLGERATINCRASKSVSAAGYNFMHWYQQKPGQPPKVLIYYASNLESGVPDRFSGSGSGTDFTLTISSLQAEDVAVYYCLHSREFPFTFGGGTKVEIKR
687 pM |  | Pos 100C Trp (antibody, V domains shown, also called CDRH3 Y100C>W) VH: EVQLVESGGGLVQPGGSLRLSCAASGFTFSSYAMSWVRQAPGKGLEWVATISDGGSFTYYLDNVRGRFTISRDNAKNSLYLQMNSLRAEDTAVYYCARDVGHTTFWWFDVWGRGTLVTVSS VL: DIVMTQSPDSLAVSLGERATINCRASKSVSAAGYNFMHWYQQKPGQPPKVLIYYASNLESGVPDRFSGSGSGTDFTLTISSLQAEDVAVYYCLHSREFPFTFGGGTKVEIKR
 | 39700 pM | Pos 100A His (antibody, V domains shown, also called CDRH3 F100A>H) VH: EVQLVESGGGLVQPGGSLRLSCAASGFTFSSYAMSWVRQAPGKGLEWVATISDGGSFTYYLDNVRGRFTISRDNAKNSLYLQMNSLRAEDTAVYYCARDVGHTTHWYFDVWGRGTLVTVSS VL: DIVMTQSPDSLAVSLGERATINCRASKSVSAAGYNFMHWYQQKPGQPPKVLIYYASNLESGVPDRFSGSGSGTDFTLTISSLQAEDVAVYYCLHSREFPFTFGGGTKVEIKR
 | 5190 pM | Pos 100A Met (antibody, V domains shown, also called CDRH3 F100A>M) VH: EVQLVESGGGLVQPGGSLRLSCAASGFTFSSYAMSWVRQAPGKGLEWVATISDGGSFTYYLDNVRGRFTISRDNAKNSLYLQMNSLRAEDTAVYYCARDVGHTTMWYFDVWGRGTLVTVSS VL: DIVMTQSPDSLAVSLGERATINCRASKSVSAAGYNFMHWYQQKPGQPPKVLIYYASNLESGVPDRFSGSGSGTDFTLTISSLQAEDVAVYYCLHSREFPFTFGGGTKVEIKR
 | 14600 pM | Pos 100A Gln (antibody, V domains shown, also called CDRH3 F100A>Q) VH: EVQLVESGGGLVQPGGSLRLSCAASGFTFSSYAMSWVRQAPGKGLEWVATISDGGSFTYYLDNVRGRFTISRDNAKNSLYLQMNSLRAEDTAVYYCARDVGHTTQWYFDVWGRGTLVTVSS VL: DIVMTQSPDSLAVSLGERATINCRASKSVSAAGYNFMHWYQQKPGQPPKVLIYYASNLESGVPDRFSGSGSGTDFTLTISSLQAEDVAVYYCLHSREFPFTFGGGTKVEIKR
675 pM |  | Pos 100D Val (antibody, V domains shown, also called CDRH3 F100D>V) VH: EVQLVESGGGLVQPGGSLRLSCAASGFTFSSYAMSWVRQAPGKGLEWVATISDGGSFTYYLDNVRGRFTISRDNAKNSLYLQMNSLRAEDTAVYYCARDVGHTTFWYVDVWGRGTLVTVSS VL: DIVMTQSPDSLAVSLGERATINCRASKSVSAAGYNFMHWYQQKPGQPPKVLIYYASNLESGVPDRFSGSGSGTDFTLTISSLQAEDVAVYYCLHSREFPFTFGGGTKVEIKR
 | 1550 pM | Pos 101 Ala (antibody, V domains shown, also called CDRH3 D101>A) VH: EVQLVESGGGLVQPGGSLRLSCAASGFTFSSYAMSWVRQAPGKGLEWVATISDGGSFTYYLDNVRGRFTISRDNAKNSLYLQMNSLRAEDTAVYYCARDVGHTTFWYFAVWGRGTLVTVSS VL: DIVMTQSPDSLAVSLGERATINCRASKSVSAAGYNFMHWYQQKPGQPPKVLIYYASNLESGVPDRFSGSGSGTDFTLTISSLQAEDVAVYYCLHSREFPFTFGGGTKVEIKR
 | 424 pM | Pos 100C Leu (antibody, V domains shown, also called CDRH3 Y100C>L) VH: EVQLVESGGGLVQPGGSLRLSCAASGFTFSSYAMSWVRQAPGKGLEWVATISDGGSFTYYLDNVRGRFTISRDNAKNSLYLQMNSLRAEDTAVYYCARDVGHTTFWLFDVWGRGTLVTVSS VL: DIVMTQSPDSLAVSLGERATINCRASKSVSAAGYNFMHWYQQKPGQPPKVLIYYASNLESGVPDRFSGSGSGTDFTLTISSLQAEDVAVYYCLHSREFPFTFGGGTKVEIKR
711 pM |  | Pos 100D Trp (antibody, V domains shown, also called CDRH3 F100D>W) VH: EVQLVESGGGLVQPGGSLRLSCAASGFTFSSYAMSWVRQAPGKGLEWVATISDGGSFTYYLDNVRGRFTISRDNAKNSLYLQMNSLRAEDTAVYYCARDVGHTTFWYWDVWGRGTLVTVSS VL: DIVMTQSPDSLAVSLGERATINCRASKSVSAAGYNFMHWYQQKPGQPPKVLIYYASNLESGVPDRFSGSGSGTDFTLTISSLQAEDVAVYYCLHSREFPFTFGGGTKVEIKR
 | 8550 pM | Pos 100 Ala (antibody, V domains shown, also called CDRH3 T100>A) VH: EVQLVESGGGLVQPGGSLRLSCAASGFTFSSYAMSWVRQAPGKGLEWVATISDGGSFTYYLDNVRGRFTISRDNAKNSLYLQMNSLRAEDTAVYYCARDVGHTAFWYFDVWGRGTLVTVSS VL: DIVMTQSPDSLAVSLGERATINCRASKSVSAAGYNFMHWYQQKPGQPPKVLIYYASNLESGVPDRFSGSGSGTDFTLTISSLQAEDVAVYYCLHSREFPFTFGGGTKVEIKR
